Experimental data: US20100272736A1 (KALOBIOS PHARMACEUTICALS, published 2010)
Changes are numbered by the printed parent chain.

B1: Fab SEQ ID NOs: 13, 4 (Fab, V domains shown)
VH: QVQLVESGGGVVQPGRSLRLSCAASGFTFSSYPLHWVRQAPGKGLEWVSFISYDGSEKYYASSVKGRFTISRDNSENTLYLQMNSLRPEDTAVYYCARNRGDIYYDFTYAMDIWGQGTMVTVSS
VL: DIQMTQSPSSLSASVGDRVTITCRASQSISRWVAWYQQRPGKAPNLLIYDASSLKSGVPSRFSGSGSGTEFTLTISSLQPEDIATYYCQQFWSTPYTFGQGTKLEIK
B2: Fab SEQ ID NOs. 24, 26 (Fab, V domains shown)
VH: B1 VH with Q1E, S31N, L34M, S49A, F50V, Y59W, S62D, E76K, Q82E, M119T
VL: DIQLTQSPSTLSASVGDSVTITCRASEGVDRWLAWYQQKPGRAPKLLIYDASTLQSGVPSRFSGSGSGTEFSLTISSLQPDDVATYYCQHFWGTPYTFGQGTKLEIK
B3: Fab SEQ ID NOs: 13, 10 (Fab, V domains shown)
VH: B1 VH
VL: DIQLTQSPSFLSASVGDRVTITCRASQGISTYLAWYQQKPGKAPKLLIYDASALQSGVPSRFSGSGSGTEFTLTISSLQPEDVATYYCQQFWSTPYTFGQGTKLEIK
B4: Fab SEQ ID NOs: 13, 37 (Fab, V domains shown)
VH: B1 VH
VL: B1 VL with S93G
B5: Fab SEQ ID NOs 3, 4 (Fab, V domains shown)
VH: QVQLVESGGGVVQPGGSLRLSCAASGFTFSTAGMHWVRQAPGKGLEWVAVIWYNGKEISYADSVKGRFTVSRDNPKNTLYLQMSSLRTEDTAVYYCARNRGDIYYDFTYAMDIWGQGTMVTVSS
VL: B1 VL
B6: Fab SEQ ID NOs. 35. 36 (Fab, V domains shown)
VH: EVQLVESGGGVVQPGRSLRLSCAASGFTFSNYPMHWVRQAPGKGLEWVAVISYDGSEKWYADSVKGRFTISRDNSKNTLYLEMNSLRPEDTAVYYCARNRGDIYYDFTYAMDYWGQGTTVTVSS
VL: B2 VL with G93S
B7: Fab SEQ ID NOs: 5, 6 (Fab, V domains shown)
VH: B5 VH with G16R, A23T, T28S, T31S, A32Y
VL: B3 VL with D1A, D50A, A53S, E70D

These binders were tested against PcrV on Pseudomonas aeruginosa strain PA103 (type III secretion system) (Pseudomonas aeruginosa strain PA103) (assay: cell-based or functional assay).

Binder	IC50 (nM), TTSS-dependent cytotoxicity assay (PA103 killing of P3-X63-Ag8 myeloma cells, propidium iodide flow cytometry) [nM]
B1	20
B2	25.5
B3	25.5
B4	12
B5	35.1
B6	61.4
B7	50.2
